In patent US20220119513A1 (ZOETIS SERVICES, published 2022):
Read-outs that look alike come from different tables or passages of the source.

Key:
[1] = target: T1, TGFβ1 (R&D Systems); assay: SPR full titration
T1 construct: also called TGFB1

[2] = target: T1, TGFβ1 (R&D Systems); assay: SPR full titration; remark: listed apart in the source
[3] = target: T2, TGFβ2 (R&D Systems); assay: SPR full titration
T2 construct: also called TGFB2
T2 sequence (P61812 303-414, species assumed, looked up): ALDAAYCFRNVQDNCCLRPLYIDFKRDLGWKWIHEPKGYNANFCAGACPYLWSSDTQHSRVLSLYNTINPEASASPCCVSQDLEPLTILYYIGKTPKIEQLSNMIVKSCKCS

[4] = target: T3, TGFβ3 (R&D Systems) (Homo sapiens (Human), UniProt P10600 301-412, Active TGFβ3 is a disulfide-linked homodimer of this chain; one copy is given.); assay: SPR full titration
T3 construct: also called TGFB3
T3 sequence: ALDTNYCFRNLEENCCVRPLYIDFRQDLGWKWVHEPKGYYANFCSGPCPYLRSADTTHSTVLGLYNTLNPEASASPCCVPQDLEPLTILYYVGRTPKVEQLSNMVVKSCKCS

[5] = target: T1, TGFβ1 (R&D Systems); assay: cell-based or functional assay
[6] = target: T3, TGFβ3 (R&D Systems); assay: cell-based or functional assay
[7] = target: canine TGFβ1 (canine, UniProt P54831 279-390, limits assumed); assay: SPR, TGFβ on chip
Sequence of canine TGFβ1 (P54831 279-390 limits assumed): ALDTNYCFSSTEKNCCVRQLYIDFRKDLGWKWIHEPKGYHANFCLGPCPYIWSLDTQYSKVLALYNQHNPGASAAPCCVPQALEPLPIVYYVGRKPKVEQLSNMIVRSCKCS
Description: (§1) To avoid affinity differences associated with differential surface preparation that can occur when immobilizing antibodies to surfaces, TGFβ1, TGFβ2, and TGFβ3 (R&D Systems) were directly conjugated to the individual surface. Immobilization was obtained by amine coupling […] using N-hydroxysuccinimide (NHS)/1-Ethyl-3-(3-dimethylaminopropyl) carbodiimide (EDC) chemistry. Chips were quenched with ethanolamine and the affinity with which all candidate mAbs bound to the immobilized TGFβ was evaluated. All curves were fit to a 1:1 model. Affinities <10⁻¹¹ are below the lower limit of quantitation of detection for the instrument.

[8] = target: T4, canine TGFβ2 (canine, UniProt A0A8I3PZZ6 331-442); assay: SPR, TGFβ on chip
T4 sequence: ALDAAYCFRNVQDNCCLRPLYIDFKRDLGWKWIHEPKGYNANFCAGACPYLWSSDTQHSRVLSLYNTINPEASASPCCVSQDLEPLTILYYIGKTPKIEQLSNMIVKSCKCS
Description: as §1

[9] = target: T5, canine TGFβ3 (canine, UniProt A0A8I3S1P1 346-457); assay: SPR, TGFβ on chip
T5 sequence: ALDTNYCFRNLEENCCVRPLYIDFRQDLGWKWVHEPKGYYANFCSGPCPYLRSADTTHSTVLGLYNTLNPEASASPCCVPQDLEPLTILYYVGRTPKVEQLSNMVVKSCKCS
Description: as §1

[10] = target: T1, TGFβ1 (R&D Systems); assay: cell-based or functional assay; remark: listed apart in the source
[11] = target: T3, TGFβ3 (R&D Systems); assay: cell-based or functional assay; remark: listed apart in the source

T1 sequence (P01137 279-390): as the sequence (P54831 279-390 limits assumed) above

B1: mouse SL501 (antibody, V domains shown)
VH: EVQLVESGGGVVQPGRSLRLSCAASGFTFSSYGMHWVRQAPGKELEWVAVISYDGSIKYYADSVKGRFTISRDNSKNTLYLQMNSLRAEDTAVYYCARTGEYSGYDTDPQYSWGQGTTVTVSS
VL: EIVLTQSPSSLSASVGDRVTITCRASQGIGDDLGWYQQKPGKAPILLIYGTSTLQSGVPSRFSGSGSGTDFTLTINSLQPEDFATYYCLQDSNYPLTFGGGTK
notes: called engineered mouse antibody and also precursor human antibody from phage display; also called mouse-SL501-VH/mouse-SL501-VL; SL501 (murine)
- Kd [1]: 0.00705 nM

B2: Chimera-SL501-VH/Can-SL501-VL2 (antibody, V domains shown)
VH: EVQLVESGGGVVQPGRSLRLSCAASGFTFSSYGMHWVRQAPGKELEWVAVISYDGSIKYYADSVKGRFTISRDNSKNTLYLQMNSLRAEDTAVYYCARTGEYSGYDTDPQYSWGQGTTVTVSS
VL: EIVMTQSPGSLAGSAGESVSINCRASQGIGDDLGWYQQKPGERPKLLIYGTSTLQSGVPARFSSSGSGTDFTLTINNLQAEDVGDYYCLQDSNYPLTFGAGTK
notes: also called heterochimeric SL501
- Kd [1]: 0.000192 nM

B3: Can-SL501-VH1/Chimera-SL501-VL (antibody, V domains shown)
VH: EVQLVESGGDLVKPGGSLRLSCVASGFTFSSYGMHWVRQAPGKGLQWVAVISYDGSIKYYTDAVKGRFTISRDNARNTVYLQMNSLRAEDTAVYYCAKTGEYSGYDTDPQYSWGQGTLVTVSS
VL: EIVLTQSPSSLSASVGDRVTITCRASQGIGDDLGWYQQKPGKAPILLIYGTSTLQSGVPSRFSGSGSGTDFTLTINSLQPEDFATYYCLQDSNYPLTFGGGTK
notes: as for B2
- Kd [1]: 1100 nM

B4: Can-SL501_VH1/CanSL501-VL-hybrid (antibody, V domains shown)
VH: EVQLVESGGDLVKPGGSLRLSCVASGFTFSSYGMHWVRQAPGKGLQWVAVISYDGSIKYYTDAVKGRFTISRDNARNTVYLQMNSLRAEDTAVYYCAKTGEYSGYDTDPQYSWGQGTLVTVSS
VL: EIVLTQSPSSLSASVGDRVTITCRASQGIGDDLGWYQQKPGQAPKLLIYGTSTLQSGVPSRFSGSGSGTDFSFTISSLEPEDVAVYYCLQDSNYPLTFGGGTK
notes: constant regions not restated
- Kd [1]: 4.01 nM

B5: Can-SL501_VH2/Chimera-SL501-VL (antibody, V domains shown)
VH: EVQLVESGGDLVKPGGSLRLSCVASGFTFSSYGMHWVRQAPGKGLQWVAVISYDGSIKYYADAVKGRFTISRDNAKNTLYLQMNSLRAEDTAMYYCAKTGEYSGYDTDPQYSWGQGTLVTVSS
VL: EIVLTQSPSSLSASVGDRVTITCRASQGIGDDLGWYQQKPGKAPILLIYGTSTLQSGVPSRFSGSGSGTDFTLTINSLQPEDFATYYCLQDSNYPLTFGGGTK
notes: as for B2
- Kd [1]: 1090 nM

B6: Chimera-SL501-VH/CanSL501-VL-hybrid (antibody, V domains shown)
VH: EVQLVESGGGVVQPGRSLRLSCAASGFTFSSYGMHWVRQAPGKELEWVAVISYDGSIKYYADSVKGRFTISRDNSKNTLYLQMNSLRAEDTAVYYCARTGEYSGYDTDPQYSWGQGTTVTVSS
VL: EIVLTQSPSSLSASVGDRVTITCRASQGIGDDLGWYQQKPGQAPKLLIYGTSTLQSGVPSRFSGSGSGTDFSFTISSLEPEDVAVYYCLQDSNYPLTFGGGTK
notes: constant regions not restated
- Kd [1]: 0.0428 nM

B7: Chimera-SL501-VH/Can-SL501-VL1 (antibody, V domains shown)
VH: EVQLVESGGGVVQPGRSLRLSCAASGFTFSSYGMHWVRQAPGKELEWVAVISYDGSIKYYADSVKGRFTISRDNSKNTLYLQMNSLRAEDTAVYYCARTGEYSGYDTDPQYSWGQGTTVTVSS
VL: EIVMTQSPASLSLSQEEKVTITCRASQGIGDDLGWYQQKPGQAPKLLIYGTSTLQSGVPSRFSGSGSGTDFSFTISSLEPEDVAVYYCLQDSNYPLTFGAGTK
notes: as for B2
- Kd [1]: 60.8 nM

B8: H1chimK (antibody)
heavy: EVQLVQSGAEVKKPGASVKVSCKTSGYTFITYWMNWVRQAPGAGLDWMGQIFPASGSTNYNEMFEGRVTLTADTSTSTAYMELSSLRAGDIAVYYCARGDGNYALDAMDYWGQGTLVTASTTAPSVFPLAPSCGSTSGSTVALACLVSGYFPEPVTVSWNSGSLTSGVHTFPSVLQSSGLYSLSSMVTVPSSRWPSETFTCNVAHPASKTKVDKPVPKRENGRVPRPPDCPKCPAPEAAGAPSVFIFPPKPKDTLLIARTPEVTCVVVDLDPEDPEVQISWFVDGKQMQTAKTQPREEQFNGTYRVVSVLPIGHQDWLKGKQFTCKVNNKALPSPIERTISKARGQAHQPSVYVLPPSREELSKNTVSLTCLIKDFFPPDIDVEWQSNGQQEPESKYRTTPPQLDEDGSYFLYSKLSVDKSRWQRGDTFICAVMHEALHNHYTQESLSHSPGK
light: DIVLTQTPASLAVSLGQRATISCRASESVDSYGNSFMHWYQQKSGQPPKLLIYLASNLESGVPARFSGSGSRTDFTLTIDPVEADDAATYYCQQNNEDPLTFGAGTKRNDAQPAVYLFQPSPDQLHTGSASVVCLLNSFYPKDINVKWKVDGVIQDTGIQESVTEQDKDSTYSLSSTLTMSSTEYLSHELYSCEITHKSLPSTLIKSFQRSEC
notes: also called canHcLb-VH1/chiHcLb-VL
- Kd [2]: 6.52 nM
- Kd [3]: 0.683 nM
- Kd [4]: 1.03 nM

B9: fel04H09-17 (antibody, V domains shown)
VH: QVLLVQSGAEVRRPGASVKIFCKASGYSFTSSWMNWLRQAPAQGFEWMGQIYPGDGDTNYNGKFKGRLTLTADTSTDTAYMELSSLRSADTAVYYCARHYDGSTDYWGHGTIVTVSS
VL: AITMTQSPGSLAGSPGQQVTMNCRASENIYSNLAWYQQKPGQHPKLLIYAATNLADGVPDRFSGSGSGTDFTLTISNLQAEDVASYYCQHFWGTPYTFGGGT
- CMVIC pSmad-3, IC50 [5]: 0.89 nM
- CRFK pSmad-3, IC50 [5]: 0.73 nM
- CMVIC pSmad-3, IC50 [6]: 39.9 nM
- CRFK pSmad-3, IC50 [6]: 370 nM

B10: fel04H09-24 (antibody, V domains shown)
VH: QVLLVQSGAEVRKPGASVKIFCKASGYSFTSSWMNWLRQAPEQGLEWMGQIYPGDGDTNYNGKFKGRLTLTADTSTNTAYMELSSLRSADTAMYYCARHYDGSTDYWGQGALVTVSS
VL: DIVMTQTPLSLPVTPGEPASISCRASENIYSNLAWYLQKPGQSPRLLIYAATNLADGVPSRFSGSGSGTDFTLRISSVEADDVGVYYCQHFWGTPYTFGQGT
- CRFK pSmad-3, IC50 [5]: 0.5 nM
- CRFK pSmad-3, IC50 [6]: 30.1 nM

B11: Can04H09 VH3/VL4 (antibody, V domains shown)
VH: EVQLVQSAAEVKKPGASVKVSCKTSGYTFTSSWMNWVQQAPGAGLDWMGQIYPGDGDTNYNGKFKGRVTLTADTSTSTAYMELSSLRAEDTAVYYCARHYDGSTDYWGQGTLVTVSS
VL: EIVMTQSPASLSLSQGEKVTITCRASENIYSNLAWYQQRPGQAPKLLIYAATNLADGVPSRFSGSGSGTDFSLTISSLEPEDVAVYYCQHFWGTPYTFGQGTK
- Kd [7]: 1.38 nM
- Kd [8]: 32.1 nM
- Kd [9]: 6.06 nM
- CMVIC pSmad-3, IC50 [10]: 0.74 nM
- CMVIC pSmad-3, IC50 [11]: 52.8 nM

B12: Can04H09 VH3/VL3 (antibody, V domains shown)
VH: EVQLVQSAAEVKKPGASVKVSCKTSGYTFTSSWMNWVQQAPGAGLDWMGQIYPGDGDTNYNGKFKGRVTLTADTSTSTAYMELSSLRAEDTAVYYCARHYDGSTDYWGQGTLVTVSS
VL: EIVMTQSPASLSLSQEEKVTITCRASENIYSNLAWYQQKPGQAPKLLIYAATNLADGVPSRFSGSGSGTDFSFTISSLEPEDVAVYYCQHFWGTPYTFGQGTK
- Kd [7]: 2.79 nM
- Kd [8]: 48.8 nM
- Kd [9]: 9.08 nM
- CMVIC pSmad-3, IC50 [10]: 1.18 nM
- CMVIC pSmad-3, IC50 [11]: 72.8 nM

B13: Can04H09 VH1/VL3 (antibody, V domains shown)
VH: EVQLVQSGAEVKKPGASVKVSCKTSGYTFISSWMNWVRQAPGAGLDWMGQIYPGDGDTNYNGKFKGRVTLTADTSTSTAYMELSSLRAGDIAVYYCARHYDGSTDYWGQGTLVTVSS
VL: EIVMTQSPASLSLSQEEKVTITCRASENIYSNLAWYQQKPGQAPKLLIYAATNLADGVPSRFSGSGSGTDFSFTISSLEPEDVAVYYCQHFWGTPYTFGQGTK
- Kd [7]: 2.43 nM
- Kd [8]: 32 nM
- Kd [9]: 6.52 nM
- CMVIC pSmad-3, IC50 [10]: 0.66 nM
- CMVIC pSmad-3, IC50 [11]: 467 nM

B14: Can04H09 VH2/VL4 (antibody, V domains shown)
VH: EVQLVQSAAEVKKPGASVKVSCKTSGYSFTSSWMNWVQQAPGKGLDWMGQIYPGDGDTNYNGKFKGRVTLTADKSTSTAYMELSSLRSEDAAVYYCARHYDGSTDYWGQGTLVTVSS
VL: EIVMTQSPASLSLSQGEKVTITCRASENIYSNLAWYQQRPGQAPKLLIYAATNLADGVPSRFSGSGSGTDFSLTISSLEPEDVAVYYCQHFWGTPYTFGQGTK
- Kd [7]: 1.42 nM
- Kd [8]: 32.9 nM
- Kd [9]: 6.03 nM
- CMVIC pSmad-3, IC50 [10]: 0.84 nM
- CMVIC pSmad-3, IC50 [11]: 69.5 nM
